Assay results published in publication PMC5098251 (Scientific Reports, 2016).

Experiments:
[1] = molecular target: T1, FasR-Fc (Fc-fused Fas receptor) (Homo sapiens, UniProt P25445); test: on-bead binding assay read by flow cytometry (Bead Surface Display); SNAP-scFv-HA made by in vitro transcription/translation and held on streptavidin beads through BG-DNA anchors; beads incubated 1 h at room temperature with FasR-Fc (1 nM unless stated; 1, 10 and 30 nM in Fig. 2B), then with DyLight488-labelled goat anti-Fc; 1.5% marvel in PBS, washes with PBS and 0.05% Tween 20; details: one partner purified
T1 construct: Fas receptor (FasR, CD95), human; also called Fas-Fc; CD95; source: bought: R&D Systems
T1 sequence (P25445 26-173): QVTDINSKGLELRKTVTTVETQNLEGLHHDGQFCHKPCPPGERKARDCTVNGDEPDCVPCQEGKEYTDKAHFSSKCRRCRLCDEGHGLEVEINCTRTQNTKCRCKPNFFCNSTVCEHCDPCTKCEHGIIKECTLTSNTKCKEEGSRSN

recombinant human FasR [2] = molecular target: T2, recombinant human FasR (Homo sapiens, UniProt P25445); test: BLI; Octet Red384; recombinant human FasR; 1:1 Langmuir model; at least in duplicate; who was immobilised is not told (Supplementary Protocols 8-10); details: both partners purified
T2 construct: Fas receptor (FasR, CD95), human, recombinant; The FasR of the BLI and SPR experiments; Details are in Supplementary Protocols 8-10; also called recombinant FasR
T2 sequence (P25445 26-335): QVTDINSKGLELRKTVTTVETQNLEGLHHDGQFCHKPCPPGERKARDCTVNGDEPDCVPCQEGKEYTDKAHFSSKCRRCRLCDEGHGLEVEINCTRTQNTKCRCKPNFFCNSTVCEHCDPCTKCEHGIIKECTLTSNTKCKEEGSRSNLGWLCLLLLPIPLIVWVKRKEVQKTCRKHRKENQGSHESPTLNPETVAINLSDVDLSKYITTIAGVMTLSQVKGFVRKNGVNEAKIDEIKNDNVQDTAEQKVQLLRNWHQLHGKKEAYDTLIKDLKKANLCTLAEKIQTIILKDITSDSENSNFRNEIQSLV

recombinant human FasR [3] = molecular target: T2, recombinant human FasR; test: SPR; BIAcore T100; low density IgG-coated chip surface, recombinant human FasR; 1:1 Langmuir model; at least in duplicate; details: both partners purified

Binder	Kd (recombinant human FasR [2]) [nM]	koff (recombinant human FasR [2]) [s⁻¹]	kon (recombinant human FasR [2]) [M⁻¹ s⁻¹]	also measured
SNAP-A11b scFv-HA (scFv, V domains shown, numbers count on: Kabat numbering; scFv linker, as in m6; On-bead form of m14; not shown: SNAP-tag, N-terminal, kept; HA, C-terminal, kept) VH: QLQLQESGPGLVKPSETLSLTCTVPGASISANSYYGVWVRQSPGKGLEWVGSIAYRGNSNSGSTYYNPSLKSRATVSVDTSKNQVSLRLTSVTAADTALYYCARRQLLDDGTGYQWAAFDVWGQGTMVTVSG VL: QSVLTQPPSVSEAPRQTVTISCSGNSFNTGRYPVNWYQQLPGKAPKLLIYSNNLRLSGVSDRFSGSKSGTSASLAIRDLLSEDEADYYCSTWDDTLEGWVFGGGTKVTVL				fold increase of MFS over E09 [1]: > 2 fold
anti-Fas receptor scFv E09 (scFv, V domains shown, VH of E09; scFv linker; VL of E09; also called parent; wild-type E09) VH: QLQLQESGPGLVKPSETLSLTCTVSGASISANSYYGVWVRQSPGKGLEWVGSIAYRGNSNSGSTYYNPSLKSRATVSVDTSKNQVSLRLTSVTAADTALYYCARRQLLDDGTGYQWAAFDVWGQGTMVTVSS VL: QSVLTQPPSVSEAPRQTVTISCSGNSFNIGRYPVNWYQQLPGKAPKLLIYYNNLRFSGVSDRFSGSKSGTSASLAIRDLLSEDEADYYCSTWDDTLKGWVFGGGTKVTVL	7.6	0.000956	236000	
E09 IgG (antibody, V domains shown, VH: as the VH of m6 (E09); IgG heavy constant region; VL: as the VL of m6 (E09); light constant region; IgG; also called parent) VH: QLQLQESGPGLVKPSETLSLTCTVSGASISANSYYGVWVRQSPGKGLEWVGSIAYRGNSNSGSTYYNPSLKSRATVSVDTSKNQVSLRLTSVTAADTALYYCARRQLLDDGTGYQWAAFDVWGQGTMVTVSS VL: QSVLTQPPSVSEAPRQTVTISCSGNSFNIGRYPVNWYQQLPGKAPKLLIYYNNLRFSGVSDRFSGSKSGTSASLAIRDLLSEDEADYYCSTWDDTLKGWVFGGGTKVTVL	15.7	0.00266	236000	Kd (recombinant human FasR [3]): 13.7 nM; koff (recombinant human FasR [3]): 0.00239 s⁻¹; kon (recombinant human FasR [3]): 174000 M⁻¹ s⁻¹
SNAP-E09_Y58S scFv-HA (scFv, V domains shown, whole scFv (VH, linker, VL) as in m3 (E09) with Y58S; not shown: SNAP-tag, N-terminal, kept; HA, C-terminal, kept) VH: QLQLQESGPGLVKPSETLSLTCTVSGASISANSYYGVWVRQSPGKGLEWVGSIAYRGNSNSGSTSYNPSLKSRATVSVDTSKNQVSLRLTSVTAADTALYYCARRQLLDDGTGYQWAAFDVWGQGTMVTVSS VL: QSVLTQPPSVSEAPRQTVTISCSGNSFNIGRYPVNWYQQLPGKAPKLLIYYNNLRFSGVSDRFSGSKSGTSASLAIRDLLSEDEADYYCSTWDDTLKGWVFGGGTKVTVL				binding result [1]: binds
Ep6b_B01 scFv (scFv, V domains shown, numbers count on: Kabat numbering; scFv linker, as in m6) VH: QLQLQESGPGLVKPSETLSLTCTVSGASISANSYYGVWVRQSPGKGLEWVGSIAYRGNSNSGSTYYNPSLKSRATVSVDSSKNQVSLRLTSVTAADTALYYCARRQLLDDGTGYQWAAFDVWGQGTMVTVSS VL: QSVLTQPPSVSEAPRQTVTISCSGNSSNIGRYPVNWYQQLPGKAPKLLIYSDNLRFSGVPDRFSGSKSGTTASLAIRDLLSEDEADYYCSTWDDTLEGWVFGGGTKVTVL	0.71	0.000125	214000	
Ep6b_B01 IgG (antibody, V domains shown, numbers count on: Kabat numbering; IgG heavy constant region; light constant region; IgG) VH: QLQLQESGPGLVKPSETLSLTCTVSGASISANSYYGVWVRQSPGKGLEWVGSIAYRGNSNSGSTYYNPSLKSRATVSVDSSKNQVSLRLTSVTAADTALYYCARRQLLDDGTGYQWAAFDVWGQGTMVTVSS VL: QSVLTQPPSVSEAPRQTVTISCSGNSSNIGRYPVNWYQQLPGKAPKLLIYSDNLRFSGVPDRFSGSKSGTTASLAIRDLLSEDEADYYCSTWDDTLEGWVFGGGTKVTVL	0.23	5.9e-05	402000	Kd (recombinant human FasR [3]): 0.06 nM; koff (recombinant human FasR [3]): 4.4e-05 s⁻¹; kon (recombinant human FasR [3]): 746000 M⁻¹ s⁻¹
A01b scFv (scFv, V domains shown, numbers count on: Kabat numbering; scFv linker, as in m6; Selected by BeSD, round IV) VH: QLQLQESGPGLVKPSETLSLTCTVPGASISANSYYGVWIRQSPGKGLEWVGSIAYRGNSNSGSTYYNPSLKSRATVSVDTSKNRVSLRLTSVTAADTALYYCARRQLLDDGTGYQWAAFDVWGQGTMVTVPS VL: QSVLTQPPSVSEVPRQTVTISCSGNSFNIGRYPVNWYQQLPGKAPKLLIYHNNLRFSGVSDRFSGSKSGTSASLAIRDLLSEDEADYYCSTWDDTLKGWVFGGGTKVTVL	2.15	0.000272	168000	
SNAP-Ep6b_B01 scFv-HA (scFv, V domains shown, numbers count on: Kabat numbering; scFv linker, as in m6; not shown: SNAP-tag, N-terminal, kept; HA, C-terminal, kept) VH: QLQLQESGPGLVKPSETLSLTCTVSGASISANSYYGVWVRQSPGKGLEWVGSIAYRGNSNSGSTYYNPSLKSRATVSVDSSKNQVSLRLTSVTAADTALYYCARRQLLDDGTGYQWAAFDVWGQGTMVTVSS VL: QSVLTQPPSVSEAPRQTVTISCSGNSSNIGRYPVNWYQQLPGKAPKLLIYSDNLRFSGVPDRFSGSKSGTTASLAIRDLLSEDEADYYCSTWDDTLEGWVFGGGTKVTVL				fold MFS over E09_Y58S (1 nM antigen) [1]: 8.4 fold; fold MFS over E09_Y58S (30 nM antigen) [1]: 1.8 fold
A03a scFv (scFv, V domains shown, numbers count on: Kabat numbering; scFv linker, as in m6; Selected by BeSD, round IV) VH: QLQLQESGPGLVKPSETLSLTCTVPGASISANSYYGVWVRQSPGRGLEWVGSIAYRGNSNSGSTYYNPSLKSRATVSVDTSKNQVSLRLTSVTAADTALYYCARRRLLDDGTGYQWAAFDNWDQGTMVTVSS VL: QSVLTQSPSVSEAPRQTVTISCSGNSFNTGRYPVNWYQQLPGKAPKLLIYSNNLRLSGVSDRFSGSKSGTSASLAIRDLLSEDEADYYCSTWDDTLEGWVFGGGTKVTVL	1.09	0.000181	240000	
A05a scFv (scFv, V domains shown, numbers count on: Kabat numbering; scFv linker, as in m6; Most abundant variant of round IV; the same as the Clade 2 consensus R4aH; also called R4aH) VH: QLQLQESSPGLVKPSETLSITCTVPGASISANSYYGVWVRQSPGKGLEWVGSIAYRGNSNSGSTYYNPSLKSRATVSVDTSKNQVSLRLTSVTAADTALYYCARRQLLDDGTGYQWAAFDVWGQGTMVTVSS VL: QSVLTQPPSVSEAPRQTVTISCSGNSFNIGRYPVNWYQQLPGKAPKLLIYHNNLRFSGVSDRFSGSKSGTSASLAIRDLLSEDEADYYCSTWDDTLKGWVFGGGTKVTVL	2.89	0.00039	153000	
A09a scFv (scFv, V domains shown, numbers count on: Kabat numbering; scFv linker, as in m6; Selected by BeSD, round IV) VH: QLQLQEPGPGLTKPSETLSLTCTVPGASISADSYYGVWVRQSPGKGLEWVGSIAYRGNSNSGSTYYNPSLKSRATVSVDTSKNQVSLRLTSVTAADTALYYCARRQLLDDGTGYQWAAFDVWGQGTMVTVSS VL: QSVLTQPPSVSEAPRQTVTISCSGNSFNIGRYPVNWYQQLPGKAPKLLIYHNNLRFSGVSDRFSGSKSGTSASLAIRDLLSEDEADYYCSTWDDTLKGWVFGGGTKVTVL	2.63	0.00029	147000	
A11b scFv (scFv, V domains shown, numbers count on: Kabat numbering; scFv linker, as in m6; Selected by BeSD, round IV) VH: QLQLQESGPGLVKPSETLSLTCTVPGASISANSYYGVWVRQSPGKGLEWVGSIAYRGNSNSGSTYYNPSLKSRATVSVDTSKNQVSLRLTSVTAADTALYYCARRQLLDDGTGYQWAAFDVWGQGTMVTVSG VL: QSVLTQPPSVSEAPRQTVTISCSGNSFNTGRYPVNWYQQLPGKAPKLLIYSNNLRLSGVSDRFSGSKSGTSASLAIRDLLSEDEADYYCSTWDDTLEGWVFGGGTKVTVL	1.09	0.000111	130000	
A07a IgG (antibody, V domains shown, numbers count on: Kabat numbering; IgG heavy constant region; light constant region; IgG made from the scFv A07a) VH: QLQLQESGPGLVKPSETLSLTCTVPGASISANSYYGVWVRQSPGKGLEWVGSIAYRGNSNSGSTYYNPSLKGRATVSVDTSKNQVSLRLTSVTAADTALYYCARRQLLDDGTGYQWAAFDNWDQGTMVTVSS VL: QSVLTQPPSVSEAPRQTVTISCSGNSFNIGRYPVNWYQQLPGKAPKLLIYSNNLRFSGVSDRFSGSKSGTSASLAIRDLLSEDEADYYCSTWDDTLKGWVFGGGTKVTVL	1.02	0.000171	277000	Kd (recombinant human FasR [3]): 0.29 nM; koff (recombinant human FasR [3]): 6.7e-05 s⁻¹; kon (recombinant human FasR [3]): 230000 M⁻¹ s⁻¹
R4aS IgG (antibody, V domains shown, numbers count on: Kabat numbering; IgG heavy constant region; light constant region; IgG; also called antibody R4aS) VH: QLQLQESGPGLVKPSETLSLTCTVPGASISANSYYGVWVRQSPGKGLEWVGSIAYRGNSNSGSTYYNPSLKSRATVSVDTSKNQVSLRLTSVTAADTALYYCARRQLLDDGTGYQWAAFDNWDQGTMVTVSS VL: QSVLTQPPSVSEAPRQTVTISCSGNSFNTGRYPVNWYQQLPGKAPKLLIYSNNLRLSGVSDRFSGSKSGTSASLAIRDLLSEDEADYYCSTWDDTLEGWVFGGGTKVTVL	0.09	1.2e-05	249000	Kd (recombinant human FasR [3]): 0.14 nM; koff (recombinant human FasR [3]): 3.8e-05 s⁻¹; kon (recombinant human FasR [3]): 282000 M⁻¹ s⁻¹
SNAP-A01b scFv-HA (scFv, V domains shown, numbers count on: Kabat numbering; scFv linker, as in m6; On-bead form of m10; not shown: SNAP-tag, N-terminal, kept; HA, C-terminal, kept) VH: QLQLQESGPGLVKPSETLSLTCTVPGASISANSYYGVWIRQSPGKGLEWVGSIAYRGNSNSGSTYYNPSLKSRATVSVDTSKNRVSLRLTSVTAADTALYYCARRQLLDDGTGYQWAAFDVWGQGTMVTVPS VL: QSVLTQPPSVSEVPRQTVTISCSGNSFNIGRYPVNWYQQLPGKAPKLLIYHNNLRFSGVSDRFSGSKSGTSASLAIRDLLSEDEADYYCSTWDDTLKGWVFGGGTKVTVL				fold increase of MFS over E09 [1]: > 2 fold
SNAP-A03a scFv-HA (scFv, V domains shown, numbers count on: Kabat numbering; scFv linker, as in m6; On-bead form of m11; not shown: SNAP-tag, N-terminal, kept; HA, C-terminal, kept) VH: QLQLQESGPGLVKPSETLSLTCTVPGASISANSYYGVWVRQSPGRGLEWVGSIAYRGNSNSGSTYYNPSLKSRATVSVDTSKNQVSLRLTSVTAADTALYYCARRRLLDDGTGYQWAAFDNWDQGTMVTVSS VL: QSVLTQSPSVSEAPRQTVTISCSGNSFNTGRYPVNWYQQLPGKAPKLLIYSNNLRLSGVSDRFSGSKSGTSASLAIRDLLSEDEADYYCSTWDDTLEGWVFGGGTKVTVL				fold increase of MFS over E09 [1]: > 2 fold
SNAP-A07a scFv-HA (scFv, V domains shown, numbers count on: Kabat numbering; scFv linker, as in m6; On-bead form of m15; not shown: SNAP-tag, N-terminal, kept; HA, C-terminal, kept) VH: QLQLQESGPGLVKPSETLSLTCTVPGASISANSYYGVWVRQSPGKGLEWVGSIAYRGNSNSGSTYYNPSLKGRATVSVDTSKNQVSLRLTSVTAADTALYYCARRQLLDDGTGYQWAAFDNWDQGTMVTVSS VL: QSVLTQPPSVSEAPRQTVTISCSGNSFNIGRYPVNWYQQLPGKAPKLLIYSNNLRFSGVSDRFSGSKSGTSASLAIRDLLSEDEADYYCSTWDDTLKGWVFGGGTKVTVL				fold increase of MFS over E09 [1]: > 2 fold
